“Also recorded” adds a separate entry of the source.
How the values were obtained:
mouse primary myoblasts = experiment: Scratch migration assay, mouse primary myoblasts; assay type: cell-based
Experimental: Cellular polarization is indicative of increased motility (de Forges et al., 2012). Scratch assays were used to test whether Wnt7a and Fzd7 polarization affect cell motility. To exclude effects on the localization of cells arising from altered rates of proliferation, cells were treated with Mitomycin-C.
Fzd7 deficient cells migrated 59% less compared to heterozygous myoblasts and expression of Fzd7-Flag in Fzd7 knockout myoblasts restored migration to normal levels (FIG. 2D). […] To investigate whether the stimulation of myoblast migration is dose dependent, different concentrations of Wnt7a and Wnt3a were tested for their effect on migration.
Following plasmid transfection or application of Wnts (R&D Systems), the cells were treated with Mitomycin-C for 2 h (50 μg/mL). Subsequently, the monolayer of cells was scraped in a straight line. The plates were then extensively washed with culture medium and incubated for 24 h before analysis. Analysis was performed using DAPI staining after matching the reference points and enumeration of DAPI-stained nuclei in the scar was performed. Unless otherwise indicated, Wnt7a and Wnt3a were used at a concentration of 100 ng/mL in scratch assays. Monodansylcadaverine (MDC, 30432, Sigma) was used in scratch assays at a concentration of 50 μm.

β-catenin signaling = experiment: TOP-flash luciferase reporter assay in C2C12 cells; assay type: cell-based; settings: different concentrations
Experimental: Different concentrations of Wnt7a were tested to exclude a dose dependent effect on β-catenin signaling, as measured by induction of TOP-flash activity in C2C12 cells.
The UBC-Fzd7-Flag (Fzd7-Flag), CMV-Fzd7-EYFP (Fzd7-YFP), CMV-Fzd3-EYFP (Fzd3-YFP), CMV-EYFP (YFP), CMV-EGFP-Rac1-wt (GFP-Rac1, 12980, Addgene), CMV-EGFP-Rac1-T17N (Rac1-DN, 12982, Addgene), CMV-EGFP-RhoA-T19N (RhoA-DN, 12967, Addgene) and CMV-EGFP-Cdc42-T17N (Cdc42-DN, 12976, Addgene) constructs have been described previously (Bentzinger et al., 2013a; Subauste et al., 2000; von Maltzahn et al., 2011). The Fzd7-tdtomato plasmid was generated by replacing the C-terminal YFP in Fzd7-YFP with tdTomato. For TOP-flash and FOP-flash the TCF reporter plasmid kit (17-285, Millipore) was used with the dual-luciferase reporter assay system (E1960, Promega). For normalization pGL4.74[hRluc/TK] (E6921, Promega) was cotransfected. For TOP-flash and FOP-flash assays the cells were transfected with GenJet lipofection reagent (SL100499, SignaGen). Otherwise, Lipofectamine 2000 (11668019, Life Technologies) was used for transfections.

primary myoblasts = experiment: Proliferation of primary myoblasts over five days; assay type: cell-based; settings: 3 h exposure; various concentrations; over 5 days
Experimental: The proliferation of primary myoblasts following a 3 h exposure to various concentrations of Wnt7a was analyzed to control for the effect being due to changes in the cell cycle status of the transplanted cells.

mdx mice = experiment: Transplantation of Wnt-treated mouse primary myoblasts into mdx mice; assay type: in vivo; settings: treated zsGreen+ myoblasts; three weeks following transplantation; compared to Veh.
Experimental: In a clinical setting, freshly isolated satellite cells are often not readily available. Therefore, the effect of 3 h Wnt7a loading on cultured primary mouse myoblasts that were subsequently transplanted into injured muscles of immunosuppressed mdx mice (FIG. S5 A) was examined. After transplantation of 100,000 cells, the number of dystrophin-expressing myofibers was increased by 72% in muscles that were injected with Wnt7a treated myoblasts (FIG. 13B). […] In addition, the mean maximal cluster distance (dispersion) increased from 1.5 mm for Veh., to 2.0 mm for Wnt7a (FIG. 13D).
Transplantation of zsGreen-expressing satellite cells or myoblasts into mdx mice was performed as previously described (Bentzinger et al., 2013c). Before transplantation the cells were treated for 3 h with Wnt7a, Wnt5a, or Wnt3a (R&D Systems) at a concentration of 50 ng/mL for freshly isolated satellite cells or with 100 ng/mL for cultured cells. Myoblasts expressing tdTomato were transplanted into uninjured muscles of C57BL/6 mice that were implanted with an osmotic pump (Alzet) delivering FK506 (Sigma) at 2.5 mg/kg/day 3 days prior to the transplantations. In some experiments, the injection site was marked with blue fluorescent microspheres (2 μm, Life Technologies) that were added at a concentration of 1:100 (vol/vol) to the cell suspension. 10 μl of the cell-microsphere suspension was injected into the TA of each mouse using a Hamilton syringe.
Muscles frozen in liquid nitrogen were cut into 12 μm cross-sections. Cross-sections and cells were either fixed with ethanol (100%) or 2% PFA for 5 min, permeabilized with 0.1% Triton/0.1 M glycine/PBS for 10 min, blocked with 5% horse serum in PBS for several hours, and incubated with specific primary antibody in blocking buffer overnight at 4° C. Samples were subsequently washed with PBS and stained with appropriate fluorescently labeled secondary antibodies for 1 h at room temperature. After washing with PBS, samples were mounted with Permafluor (Fisher). Antibodies were as follows: chicken anti-GFP (Abcam, ab13970), mouse anti-Pax7 (DSHB), mouse anti-Dystrophin (7A10, DSHB), mouse anti-Rac1 (05-389, Millipore), mouse anti-Tubulin (Sigma, T9026), rabbit anti-Dvl2 (3224, Cell Signaling), rabbit anti-zsGreen (Clontech, 632474), rabbit anti-Laminin (Sigma, L9393), rabbit anti-HA (Millipore, 07-221).

Molecule	dose dependency of myoblast migration (mouse primary myoblasts; different concentrations tested, mouse primary myoblasts)	stimulation of cell migration (mouse primary myoblasts; primary mouse myoblasts, 100 ng/mL)	TOP-flash reporter activity (β-catenin signaling)	rate of proliferation of primary myoblasts (primary myoblasts)	mean maximal cluster distance (mdx mice)	number of dystrophin-expressing myofibers (mdx mice)
Wnt3a: unrelated canonical Wnt protein (R&D Systems) used as comparison (protein, UniProt P56704 19-352, looked up) Protein Wnt-3a: SYPIWWSLAVGPQYSSLGSQPILCASIPGLVPKQLRFCRNYVEIMPSVAEGIKIGIQECQHQFRGRRWNCTTVHDSLAIFGPVLDKATRESAFVHAIASAGVAFAVTRSCAEGTAAICGCSSRHQGSPGKGWKWGGCSEDIEFGGMVSREFADARENRPDARSAMNRHNNEAGRQAIASHMHLKCKCHGLSGSCEVKTCWWSQPDFRAIGDFLKDKYDSASEMVVEKHRESRGWVETLRPRYTYFKVPTERDLVYYEASPNFCEPNPETGSFGTRDRTCNVSSHGIDGCDLLCCGRGHNARAERRREKCRCVFHWCCYVSCQECTRVYDVHTCK	no significant effect at any concentration tested	does not affect cell migration; also recorded: did not stimulate cell migration	dose dependent increase; also recorded: dose dependent response	reduced the proliferation of primary myoblasts	no difference; also recorded: Neither the number of dystrophin-expressing myofibers (FIG. 13E) nor the mean maximal cluster distance (FIG. 13F) was changed	no difference; also recorded: Neither the number of dystrophin-expressing myofibers (FIG. 13E) nor the mean maximal cluster distance (FIG. 13F) was changed
Wnt5a: Wnt protein (R&D Systems) used as comparison in myoblast transplantation (protein, UniProt P41221 62-380, looked up) Protein Wnt-5a: IIGAQPLCSQLAGLSQGQKKLCHLYQDHMQYIGEGAKTGIKECQYQFRHRRWNCSTVDNTSVFGRVMQIGSRETAFTYAVSAAGVVNAMSRACREGELSTCGCSRAARPKDLPRDWLWGGCGDNIDYGYRFAKEFVDARERERIHAKGSYESARILMNLHNNEAGRRTVYNLADVACKCHGVSGSCSLKTCWLQLADFRKVGDALKEKYDSAAAMRLNSRGKLVQVNSRFNSPTTQDLVYIDPSPDYCVRNESTGSLGTQGRLCNKTSEGMDGCELMCCGRGYDQFKTVQTERCHCKFHWCCYVKCKKCTEIVDQFVCK	–	–	–	–	no difference; also recorded: Neither the number of dystrophin-expressing myofibers (FIG. 13E) nor the mean maximal cluster distance (FIG. 13F) was changed	no difference; also recorded: Neither the number of dystrophin-expressing myofibers (FIG. 13E) nor the mean maximal cluster distance (FIG. 13F) was changed

From patent publication US20170087188A1, “WNT INDUCED MOTILITY AND ENHANCED ENGRAFTMENT OF CELLS” (OTTAWA HOSPITAL RESEARCH INSTITUTE, priority 2014, published 2017)
